According to patent publication US20260232732A1 (FUNDACI INSTITUT DE RECERCA CONTRA LA LEUC MIA JOSEP …, published 2026):
Values belong to the binder of their own block, whether it stands above or below them. Where no end group is shown, it is not given here. The star is where a group is joined. Biotin = O=C1N[C@H]2[C@H](CS[C@H]2CCCCC(=O)*)N1

Columns and labels:
[1] = molecular target: T1, Peptide 1-BSA (MADDYGSEST-C conjugated to BSA) (human); assay: ELISA; Ab 0.25 ug/mL; repII
T1 peptide: MADDYGSESTC(BSA)
Experimental: (§1) In brief, plates with each non-conjugated peptide (50 μg/mL) or BSA-conjugated peptide (5 μg/mL) were coated in 0.58M carbonate-bicarbonate buffer pH9.5, 100 μL/well, at 4° C. […] After washing, wells were incubated with the 3, 3′,5,5′-Tetramethylbenzidine (TMB) HRP substrate and reactions were stopped with 2M HCl and OD450 was recorded.

[2] = molecular target: T2, Peptide 3-BSA (SSMEDYVNFN-C conjugated to BSA) (human); assay: ELISA; Ab 0.25 ug/mL; repII
T2 peptide: SSMEDYVNFNC(BSA)
Experimental: as §1

[3] = molecular target: T3, BSA (negative control coating) (bovine, UniProt P02769 25-607); assay: ELISA; Ab 0.25 ug/mL; repII
T3 construct: also called Negative control BSA
Experimental: as §1

[4] = molecular target: T4, Peptide 3, non-conjugated (SSMEDYVNFN-C) (human); assay: ELISA; Ab 0.25 ug/mL; repII
T4 construct: With the extra C-terminal Cys
T4 peptide: SSMEDYVNFNC
Experimental: as §1

[5] = molecular target: T5, Peptide 2, non-conjugated (GSESTSSMED-C) (human); assay: ELISA; Ab 0.25 ug/mL; repII
T5 construct: With the extra C-terminal Cys
T5 peptide: GSESTSSMEDC
Experimental: as §1

[6] = molecular target: T6, Peptide 4-BSA (SMEDYVNFNF-C conjugated to BSA) (human); assay: ELISA; Ab 0.25 ug/mL; repII
T6 peptide: SMEDYVNFNFC(BSA)
Experimental: as §1

[7] = molecular target: T7, antigen peptide-BSA (immunisation peptide #1 MADDYGSESTSSMEDYVNFNF-C conjugated to BSA) (human, extra C-terminal Cys conjugated to BSA); assay: ELISA; Ab 0.25 ug/mL; repII
T7 construct: also called Positive control antigen peptide-BSA; MADDY peptide
T7 peptide: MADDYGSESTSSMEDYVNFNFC
Experimental: as §1

[8] = molecular target: T8, Peptide 1, non-conjugated (MADDYGSEST-C) (human); assay: ELISA; Ab 0.25 ug/mL; repII
T8 construct: With the extra C-terminal Cys
T8 peptide: MADDYGSESTC
Experimental: as §1

[9] = molecular target: T9, Peptide 4, non-conjugated (SMEDYVNFNF-C) (human); assay: ELISA; Ab 0.25 ug/mL; repII
T9 construct: With the extra C-terminal Cys
T9 peptide: SMEDYVNFNFC
Experimental: as §1

[10] = molecular target: T10, Peptide 2-BSA (GSESTSSMED-C conjugated to BSA) (human); assay: ELISA; Ab 0.25 ug/mL; repII
T10 peptide: GSESTSSMEDC(BSA)
Experimental: as §1

[11] = molecular target: T1, Peptide 1-BSA (MADDYGSEST-C conjugated …); assay: ELISA; Ab 0.03125 ug/mL; repII
Experimental: as §1

[12] = molecular target: T2, Peptide 3-BSA (SSMEDYVNFN-C conjugated …); assay: ELISA; Ab 0.03125 ug/mL; repII
Experimental: as §1

[13] = molecular target: T3, BSA (negative control coating); assay: ELISA; Ab 0.03125 ug/mL; repII
Experimental: as §1

[14] = molecular target: T4, Peptide 3, non-conjugated (SSMEDYVNFN-C); assay: ELISA; Ab 0.03125 ug/mL; repII
Experimental: as §1

[15] = molecular target: T5, Peptide 2, non-conjugated (GSESTSSMED-C); assay: ELISA; Ab 0.03125 ug/mL; repII
Experimental: as §1

[16] = molecular target: T6, Peptide 4-BSA (SMEDYVNFNF-C conjugated …); assay: ELISA; Ab 0.03125 ug/mL; repII
Experimental: as §1

[17] = molecular target: T7, antigen peptide-BSA (immunisation …); assay: ELISA; Ab 0.03125 ug/mL; repII
Experimental: as §1

[18] = molecular target: T8, Peptide 1, non-conjugated (MADDYGSEST-C); assay: ELISA; Ab 0.03125 ug/mL; repII
Experimental: as §1

[19] = molecular target: T9, Peptide 4, non-conjugated (SMEDYVNFNF-C); assay: ELISA; Ab 0.03125 ug/mL; repII
Experimental: as §1

[20] = molecular target: T10, Peptide 2-BSA (GSESTSSMED-C conjugated …); assay: ELISA; Ab 0.03125 ug/mL; repII
Experimental: as §1

[21] = molecular target: T11, biotin-peptide SMEDYVNFNF (human); assay: ELISA biotin-peptide; scFv 5 ug/mL; repI
T11 peptide: Biotin-SMEDYVNFNF
Experimental: (§2) The peptides were synthesized naked or with a N-terminal Biotin modification with a purity of >98%. All four scFvs were verified by ELISA that can be detected with anti-His antibodies. ELISA was performed for scFv-peptide binding validation. Briefly, naked peptides were coated (50 μg/mL) in 0.58M carbonate-bicarbonate buffer pH9.5, 100 μL/well, 4° C. O/N. Then after blocking (3% BSA-PBS, 300 μL/well 37° C. 1.5 h) and washing (PBS+Tween-20 0.05% v/v (0.05% PBST), wells were incubated with each purified scFv antibody at concentration of 1 μg/mL in PBS at 37° C. 1 h. After washing (0.05% PBST), wells were incubated with secondary antibodies (goat anti-His IgG-HRP) in PBS, 37° C., 30 min. After washing, and incubation with TMB substrate, reactions were stopped with 2M HCl and reading was quantified at OD450.
(§3) ELISA with biotin-conjugated peptides (5 μg/mL) was performed very similar to described above with minor modifications.
(§4) A full curve ELISA was performed for each positive scFv/biotin-peptide pair in order to confirm previous results. Tables 15-17 show ELISA results of the dose-dependent full curve for each positive peptide with scFv “CCR9_HUM”, “Comp-2” and “Comp-3”, respectively.

[22] = molecular target: T12, biotin-peptide SSMEDYVNFN (human); assay: ELISA biotin-peptide; scFv 5 ug/mL; repI
T12 peptide: Biotin-SSMEDYVNFN
Experimental: as §2, §3, §4

[23] = molecular target: T13, biotin-peptide MEDYVNFNFT (human); assay: ELISA biotin-peptide; scFv 5 ug/mL; repI
T13 peptide: Biotin-MEDYVNFNFT
Experimental: as §2, §3, §4

[24] = molecular target: T14, biotin-peptide TSSMEDYVNF (human); assay: ELISA biotin-peptide; scFv 10 ug/mL; repII
T14 peptide: Biotin-TSSMEDYVNF
Experimental: as §2, §3, §4

[25] = molecular target: T13, biotin-peptide MEDYVNFNFT; assay: ELISA biotin-peptide; scFv 10 ug/mL; repII
Experimental: as §2, §3, §4

T3 sequence (P02769 25-607 limits assumed): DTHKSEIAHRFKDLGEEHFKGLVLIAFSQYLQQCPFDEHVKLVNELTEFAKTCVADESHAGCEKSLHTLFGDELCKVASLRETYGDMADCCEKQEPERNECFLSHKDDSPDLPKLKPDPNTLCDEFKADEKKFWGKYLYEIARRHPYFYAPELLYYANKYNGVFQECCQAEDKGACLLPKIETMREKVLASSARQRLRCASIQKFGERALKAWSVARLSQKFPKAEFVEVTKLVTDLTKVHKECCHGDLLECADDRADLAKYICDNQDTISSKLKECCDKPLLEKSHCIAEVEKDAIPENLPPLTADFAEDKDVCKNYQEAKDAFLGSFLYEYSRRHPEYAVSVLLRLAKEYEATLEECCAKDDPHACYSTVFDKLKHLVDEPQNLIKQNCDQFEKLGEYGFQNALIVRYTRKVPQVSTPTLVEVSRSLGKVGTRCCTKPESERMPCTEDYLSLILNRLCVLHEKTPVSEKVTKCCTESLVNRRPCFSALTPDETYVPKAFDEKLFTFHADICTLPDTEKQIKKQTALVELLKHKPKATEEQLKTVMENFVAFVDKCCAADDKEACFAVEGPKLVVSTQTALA

OD450 [1]: 0.02 OD | OD450 [2]: 2.05 OD | OD450 [3]: 0.02 OD | OD450 [4]: 1.8 OD | OD450 [5]: 0.01 OD | OD450 [6]: 2.53 OD | OD450 [7]: 2.42 OD | OD450 [8]: 0.02 OD | OD450 [9]: 2.24 OD | OD450 [10]: 0.02 OD | OD450 [11]: 0.01 OD | OD450 [12]: 1.57 OD | OD450 [13]: 0.01 OD | OD450 [14]: 1.62 OD | OD450 [15]: 0.01 OD | OD450 [16]: 1.53 OD | OD450 [17]: 1.48 OD | OD450 [18]: 0.01 OD | OD450 [19]: 0.76 OD | OD450 [20]: 0.01 OD
B1: anti-CCR9 antibody clone 115 (murine, from hybridoma #115) (antibody, V domains shown)
VH: QVQLKQSGPELVKPGTSVRVSCTASGYSFTDYIIYWVKQSHGRSLEWIGYIDPNNYNTRYSQKFKGKATLTVDKSSTSAFMHLNSLTSDDSAVYYCARDVYWGQGTTLTVSS
VL: DVVMTQTPLSLTVSLGDQASISCRSSQSLVHSNGKTYLQWYLQKPGQSPKLLIYKVSNRFSGVPDRFSGSGSGTDFTLKISRVEAEDLGVYFCAQSTHVWTFGGGTKLEIKR
notes: Mouse IgG1

OD450 [21]: 1.78 OD | OD450 [22]: 1.86 OD | OD450 [23]: 1.71 OD | OD450 [24]: 1.36 OD | OD450 [25]: 1.79 OD
B2: CCR9_HUM2 scFv (humanized anti-CCR9 scFv, SEQ ID NO: 17 with C-terminal 6xHis tag) (scFv)
scFv: QVQLVQSGAEVKKPGASVKVSCTASGYSFTDYIIYWVKQAHGQSLEWMGYIDPNNYNTRYSQKFQGKVTITVDKSSTSAYMELNSLTSDDTAVYYCARDVYWGQGTTVTVSSGGGGSGGGGSGGGGSGGGGSDVVMTQTPLSLSVTPGQPASISCRSSQSLVHSNGKTYLQWYLQKPGQSPKLLIYKVSNRFSGVPDRFSGSGSGTDFTLKISRVEAEDVGVYFCAQSTHVWTFGGGTKVEIKRAHHHHHH
